Patent US20110053195

How the values were obtained:
[1] = system: Wheat xylanase inhibitors WXI11.5, eluted from the Xy1A1A affinity column with 50% ethylene glycol pH 11.5
[2] = system: xylanase inhibitors present in wheat extract (WE)

Pichia pastoris produced Xy1A1A_E79A inactive xylanase, sequence (chain, as listed by the source E79A): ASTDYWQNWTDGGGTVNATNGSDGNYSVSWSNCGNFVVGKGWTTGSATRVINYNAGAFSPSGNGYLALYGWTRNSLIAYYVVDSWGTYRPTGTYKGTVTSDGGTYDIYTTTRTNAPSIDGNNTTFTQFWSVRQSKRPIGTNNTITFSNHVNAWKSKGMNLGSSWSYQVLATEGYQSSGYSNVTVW

With “Pichia pastoris produced Xy1A1A_E79A inactive xylanase” the % Residual Activity of Avizyme 1310 with WXI pH11.5 (0.58 µg/ml) and XylA1A E79A (100 µg/ml) [1] was 121%, the % Residual Activity of XylA1A with WXI pH11.5 (0.58 µg/ml) and XylA1A E79A (100 µg/ml) [1] was 96.1% and the Xylanase Activity (umol/min/mg) of Avizyme 1310 with WXI pH11.5 (0.58 µg/ml) and XylA1A E79A (100 µg/ml) [1] was 6880 µmol/min/mg. The Xylanase Activity (umol/min/mg) of XylA1A with WXI pH11.5 (0.58 µg/ml) and XylA1A E79A (100 µg/ml) [1] was 4420 µmol/min/mg and the “recovery of xylanase activity (azo-WAXY, A595) of added Xy1A1A in wheat flour extract” value [2] was “Of the 24 isolates tested, 9 showed recovery of xylanase activity”.
